{"source": "paper PMC6954390", "about": "“Negative cooperativity between Gemin2 and RNA provides insights into RNA selection and the SMN complex's release in snRNP assembly” (Nucleic Acids Research, 2019)", "key": {"Gemin2ΔN39": {"molecular_target": "T1, Gemin2ΔN39 (human, UniProt O14893 40-280)", "T1 construct": "Gemin2, human, N-terminal 39 residues deleted (residues 40-280 left); also called Gemin2 residues 40–280; source: coexpressed with SMN_(Ge2BD) (pCDF-HT-Gemin2ΔN39); not shown: His6, N-terminal, cleaved", "T1 sequence (looked up)": "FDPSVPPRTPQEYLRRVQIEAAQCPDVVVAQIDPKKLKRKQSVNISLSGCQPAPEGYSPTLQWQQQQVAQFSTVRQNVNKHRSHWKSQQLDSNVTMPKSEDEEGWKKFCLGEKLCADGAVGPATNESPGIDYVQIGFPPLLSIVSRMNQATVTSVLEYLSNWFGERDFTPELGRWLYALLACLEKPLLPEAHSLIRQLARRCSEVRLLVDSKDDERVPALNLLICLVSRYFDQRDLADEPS", "experiment": "crystal structure; Complexes A, B and C; hanging-drop vapor diffusion at 20°C, 1-6% PEG8000, 100 mM Tris-HCl pH 7.5-8.2; solved by molecular replacement with PDB 3S6N", "conditions": "both partners purified"}, "Gemin2 (full-length)": {"molecular_target": "T2, Gemin2 (full-length) (human, UniProt O14893 1-280)", "T2 construct": "Gemin2, human, full length; source: coexpressed with SMN_(Ge2BD) (pCDF-HT-Gemin2); not shown: His6, N-terminal, cleaved", "T2 sequence (looked up)": "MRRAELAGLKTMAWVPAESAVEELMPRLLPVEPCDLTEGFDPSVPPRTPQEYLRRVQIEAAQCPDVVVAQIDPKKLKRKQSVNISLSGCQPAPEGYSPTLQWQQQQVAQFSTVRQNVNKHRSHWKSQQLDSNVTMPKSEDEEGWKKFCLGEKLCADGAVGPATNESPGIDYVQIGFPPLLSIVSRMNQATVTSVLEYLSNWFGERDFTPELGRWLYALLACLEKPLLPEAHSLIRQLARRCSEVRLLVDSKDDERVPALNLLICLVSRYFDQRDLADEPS", "experiment": "crystal structure; Complexes A, B and C; hanging-drop vapor diffusion at 20°C, 1-6% PEG8000, 100 mM Tris-HCl pH 7.5-8.2; solved by molecular replacement with PDB 3S6N", "conditions": "both partners purified"}}, "data": [{"binder": "GQSDDSDIWDDTALIKAYDKAVASFKHALKNGDICET (domain or fragment, human, UniProt Q16637 26-62, looked up, also called SMN(26-62); SMN (26–62) peptide; source: coexpressed with Gemin2 or Gemin2ΔN39 (pET21-HMT-SMN_(Ge2BD)); not shown: His6, N-terminal, cleaved; MBP, N-terminal, cleaved)", "note": "[SMN_(Ge2BD), SMN residues 26–62]", "values": [{"measurement": "binding result", "setting": "Gemin2ΔN39", "value": "binds"}, {"measurement": "binding result", "setting": "Gemin2 (full-length)", "value": "binds"}]}]}
